Source: patent US5770702, “Fibronectin binding protein as well as its preparation” (dated 1998)

Target: Human fibronectin (intact) (human, UniProt P02751-8, 125I-labelled in the cell binding assays; coupled to Sepharose in the affinity chromatography)
Assay: inhibition of labelled fibronectin binding to S. aureus cells

B1: 165 kD fibronectin binding protein (FNBP) isolated from E. coli pFR001 (receptor)
chain: ASEQKTTTVEENGNSATDNKTSETQTTATNVNHIEETQSYNATVTEQPSNATQVTTEEAPKAVQAPQTAQPANIETVKEEVVKEEAKPQVKETTQSQDNSGDQRQVDLTPKKATQNQVAETQVEVAQPRTASESKPRVTRSADVAEAKEASNAKVETGTDVTSKVTVEIGSIEGHNNTNKVEPHAGQRAVLKYKLKFENGLHQGDYFDFTLSNNVNTHGVSTARKVPEIKNGSVVMATGEVLEGGKIRYTFTNDIEDKVDVTAELEINLFIDPKTVQTNGNQTITSTLNEEQTSKELDVKYKDGIGNYYANLNGSIETFNKANNRFSHVAFIKPNNGKTTSVTVTGTLMKGSNQNGNQPKVRIFEYLGNNEDIAKSVYANTTDTSKFKEVTSNMSGNLNLQNNGSYSLNIENLDKTYVVHYDGEYLNGTDEVDFRTQMVGHPEQLYKYYYDRGYTLTWDNGLVLYSNKANGNEKNGPIIQNNKFEYKEDTIKETLTGQYDKNLVTTVEEEYDSSTLDIDYHTAIDGGGGYVDGYIETIEETDSSAIDIDYHTAVDSEAGHVGGYTESSEESNPIDFEESTHENSKHHADVVEYEEDTNPGGGQVTTESNLVEFDEESTKGIVTGAVSDHTTVEDTKEYTTESNLIELVDELPEEHGQAQGPVEEITKNNHHISHSGLGTENGHGNYDVIEEIEENSHVDIKSELGYEGGQNSGNQSFEEDTEEDKPKYEQGGNIVDIDFDSVPQIHGQNKGNQSFEEDTEKDKPKYEHGGNIIDIDFDSVPHIHGFNKHTEIIEEDTNKDKPSYQFGGHNSVDFEEDTLPKVSGQNEGQQTIEEDTTPPIVPPTPPTPEVPSEPETPTPPTPEVPSEPETPTPPTPEVPSEPETPTPPTPEVPAEPGKPVPPAKEEPKKPSKPVEQGKVVTPVIEINEKVKAVAPTKKPQSKKSELPETGGEESTNKGMLFGGLFSILGLALLRRNKKNHKA
  fold more active than the 87 kD protein on a molar basis: 30 times
